# Experimental data as given in PMC5916273, “Structure of a VirD4 coupling protein bound to a VirB type IV secretion machinery” (The EMBO Journal, 2017).
# Experiments:
# [1] = target: T4SS_(3-10) complex of plasmid R388 (TrwM/VirB3 to TrwE/VirB10) (conjugative plasmid R388); assay: cysteine labelling with Alexa Fluor 633 C5 maleimide and fluorescence of SDS-PAGE bands; co-purified T4SS3-10+D4 complex denatured in 1% SDS, reduced with TCEP, labelled; band of TrwE (14 copies) as reference; three independent preparations
# [2] = target: the molecule itself; assay: negative stain electron microscopy structure; co-purified T4SS3-10+D4 complex from the ΔtrwD/virB11 construct, cross-linked with 0.1% glutaraldehyde on a 10-30% sucrose gradient (GraFix); 2% uranyl acetate; reconstruction of the inner membrane complex, C2 symmetry, 28 Å
molecule,measurement,setting,value
"TrwB/VirD4 coupling protein of plasmid R388, N-terminally His-tagged (from UniProt Q04230 1-507) (natural protein)",stoichiometry N (TrwB subunits per complex),[1],4.5
"TrwB/VirD4 coupling protein of plasmid R388, N-terminally His-tagged (natural protein, conjugative plasmid R388, UniProt Q04230 1-507, looked up, TrwB (VirD4 homologue), coupling protein encoded by the conjugative plasmid R388; whole gene cloned after trwD/virB11; theoretical molecular weight with 10 additional histidines 57 kDa; Inner membrane protein; also called His trwB_(/virD4); source: detergent-solubilised membranes; co-purified (Strep column, HisTrap); not shown: His10, N-terminal, kept) MHPDDQRKVSAGIVIVLPLIFWITAVQKTEVLGSPKLLALWELMKLTPQKPILLLSALGGLAVGVLFVWLLNSVGQGEFGGAPFKRFLRGTRIVSGGKLKRMTREKAKQVTVAGVPMPRDAEPRHLLVNGATGTGKSVLLRELAYTGLLRGDRMVIVDPNGDMLSKFGRDKDIILNPYDQRTKGWSFFNEIRNDYDWQRYALSVVPRGKTDEAEEWASYGRLLLRETAKKLALIGTPSMRELFHWTTIATFDDLRGFLEGTLAESLFAGSNEASKALTSARFVLSDKLPEHVTMPDGDFSIRSWLEDPNGGNLFITWREDMGPALRPLISAWVDVVCTSILSLPEEPKRRLWLFIDELASLEKLASLADALTKGRKAGLRVVAGLQSTSQLDDVYGVKEAQTLRASFRSLVVLGGSRTDPKTNEDMSLSLGEHEVERDRYSKNTGKHHSTGRALERVRERVVMPAEIANLPDLTAYVGFAGNRPIAKVPLEIKQFANRQPAFVEGTI",stoichiometry N,[2],2 TrwB molecules in each region of density
